The subject of assay [1] is Steel-Dickie (S1/S1^d) mice. Put plainly: In vivo activity in Steel-Dickie mice. On the set-up: species or system mouse. Particulars: 100 μg/kg/day 30 days then 30 μg/kg/day 20 days, s.c. How it is done: Steel mice provide a sensitive in vivo model for SCF activity. Different recombinant SCF proteins were tested in Steel-Dickie (S1/S1^d) mice for varying lengths of time. Six to ten week old Steel mice (WCB6F1-S1/S1^d) were purchased from Jackson Labs, Bar Harbor, Me. Peripheral blood was monitored by a SYSMEX F-800 microcell counter (Baxter, Irvine, Calif.) for red cells, hemoglobin, and platelets. For enumeration of peripheral white blood cell (WBC) numbers, a Coulter Channelyzer 256 (Coulter Electronics, Marietta, Ga.) was used.
In the experiment in FIG. 24, Steel-Dickie mice were treated with E. coli derived SCF^1-164, purified as in Example 10, at a dose of 100 μg/kg/day for 30 days, then at a dose of 30 μg/kg/day for an additional 20 days. The protein was formulated in injectable saline (Abbott Labs, North Chicago, Ill.) +0.1% fetal bovine serum. The injections were performed daily, subcutaneously. The peripheral blood was monitored via tail bleeds of ˜50 μl at the indicated times in FIG. 24. The blood was collected into 3% EDTA coated syringes and dispensed into powdered EDTA microfuge tubes (Brinkmann, Westbury, N.Y.). […]
Whole blood was stained for T lymphocyte subsets as follows. […] Each sample of blood was then analyzed on a FACScan cell analysis system (Becton Dickinson, Mountain View, Calif.). […]

Assay [2] relates to COS-1 cells (endogenous c-kit). In words: ^125I-SCF^1-164 binding to COS-1 cells transfected with V19.8 alone. The source says:
To test whether SCF^1-164 is the ligand for c-kit, the cDNA for the entire murine c-kit [Qiu et al., EMBO J., 7, 1003–1011 (1988)] was amplified using PCR from the SCF^1-164 responsive mast cell line MC/9 [Nabel et al., Nature, 291, 332–334 (1981)] with primers designed from the published sequence. The ligand binding and transmembrane domains of human c-kit, encoded by amino acids 1–549 [Yarden et al., EMBO J., 6, 3341–3351 (1987)], were cloned using similar techniques from the human erythroleukemia cell line, HEL [Martin and Papayannopoulou, Science, 216, 1233–1235 (1982)]. The c-kit cDNAs were inserted into the mammalian expression vector V19.8 transfected into COS-1 cells, and membrane fractions prepared for binding assays using either rat or human ^125I-SCF^1-164 according to the methods described in Sections B and C below. […] There was no detectable specific binding of ^125I human SCF^1-164 to COS-1 cells transfected with V19.8 alone. However, COS-1 cells expressing human recombinant c-kit ligand binding plus transmembrane domains (hckit-LT1) did bind ^125I-hSCF^1-164 (Table 17). The addition of a 200 fold molar excess of unlabelled human SCF^1-164 reduced binding to background levels. […]
Two days after transfection, the COS-1 cells were scraped from the dish, washed in PBS, and frozen until use. […] The pellets were clipped off and membrane associated ^125I-SCF^1-164 was quantitated.

From US7144731B2, “SCF antibody compositions and methods of using the same” (Amgen Inc., priority 1989, dated 2006) come the findings set out here.

B1: rrSCF^1-164: recombinant rat SCF^1-164 from E. coli, also used ^125I-labelled (protein)
chain: QEICRNPVTDNVKDITKLVANLPNDYMITLNYVAGMDVLPSHCWLRDMVTHLSVSLTTLLDKFSNISEGLSNYSIIDKLGKIVDDLVACMEENAPKNVKESLKKPETRNFTPEEFFSIFNRSIDAFKDFMVASDTSDCVLSSTLGPEKDSRVSVTKPFMLPPVA
Turning to B1, the “macrocytic anemia (hematocrit, mean red cell volume)” value in assay [1] was “significant correction of the macrocytic anemia”. Further, the “CPM Bound, ^125I-SCF + cold” value in assay [2] (1.6 nM ^125I-SCF^1-164 + 320 nM unlabelled SCF^1-164, V19.8) was found to be 550 CPM. In addition, the “CPM Bound, ^125I-SCF” value in assay [2] (1.6 nM ^125I-SCF^1-164, plasmid V19.8) is on record as 1,100 CPM.
